Laboratory results: patent US20230310629A1, “BISPECIFIC ANTIBODY-DRUG CONJUGATES TARGETING EGFR AND MUC1 AND USES THEREOF” (Merck Patent GmbH, priority 2020, published 2023)

Columns and labels:
WISH cells = test: WISH cell binding (Example 1); parameters: species or system human; unit not given here
human MUC1-VNTR peptide = human MUC1-VNTR peptide (Homo sapiens, UniProt P15941); test: Biacore binding to human MUC1-VNTR peptide (Example 1)
Experimental: An anti-MUC1 scFv (H02) was developed by affinity maturation of anti-MUC1 antibody HT186-D11 (see Thie H. et al. PLoS One […], 6, 1, e15921) using ribosome display selection. For the scFv library, CDRs H1, H2, H3 and L3 (SEQ ID NOs: 4, 5, 6, and 9) were targeted. scFv ribosome display selections were then performed against a biotinylated synthetic VNTR peptide of MUC ([…]-biotin) (SEQ ID NO:10).

[1] = human MUC1-VNTR, second data set

kd (human MUC1-VNTR peptide; human MUC1-VNTR peptide, first data set): 2.14E−04 ½
ka1 (human MUC1-VNTR peptide; [1]): 126000 M⁻¹ s⁻¹
kd1 (human MUC1-VNTR peptide; [1]): 0.0017 s⁻¹
B1: 1993-H02: anti-MUC1 antibody variant from affinity maturation of HT186-D11, with HT186-D11 light chain; developed as scFv (antibody, V domains shown)
VH: QMQLVQSEAELKKPGASVKVSCKASGYSFTSHFMHWVRQAPGQGLEWMGWIDPVTGGTKYAQNFQGWVTMTRDTSIRTAYLELSRLRSDDTAMYYCAREARADRGQFDKWGQGTLVTVAS
VL: QSVLTQPPSVSVAPGKTARITCGGNNIGSKSVHWYQQKPGQAPALVIYYGSNRPSGIPERFSGSNSGNTATLTISRVEAGDEADYYCQVWDSSSDWVFGGGTKLTVL
Turbidity A600: 0.15
Bmax (WISH cells): 128920
